From patent US20150217006A1, “AL-F-18-LABELED, AL-F-19-LABELED AND GA-68-LABELED GASTRIN-RELEASING PEPTIDE RECEPTOR (GRPR)-ANTAGONISTS FOR IMAGING OF PROSTATE CANCER” (Immunomedics, Inc., priority 2014, published 2015)

Target: gastrin-releasing peptide receptor (GRPR) (human) (UniProt P30550)
Assay: competition with 125I-BBN on PC-3 cells, repeat experiment, inhibitor 250 to 2 nM

Sequence of gastrin-releasing peptide receptor (GRPR) (human) (P30550 whole entry): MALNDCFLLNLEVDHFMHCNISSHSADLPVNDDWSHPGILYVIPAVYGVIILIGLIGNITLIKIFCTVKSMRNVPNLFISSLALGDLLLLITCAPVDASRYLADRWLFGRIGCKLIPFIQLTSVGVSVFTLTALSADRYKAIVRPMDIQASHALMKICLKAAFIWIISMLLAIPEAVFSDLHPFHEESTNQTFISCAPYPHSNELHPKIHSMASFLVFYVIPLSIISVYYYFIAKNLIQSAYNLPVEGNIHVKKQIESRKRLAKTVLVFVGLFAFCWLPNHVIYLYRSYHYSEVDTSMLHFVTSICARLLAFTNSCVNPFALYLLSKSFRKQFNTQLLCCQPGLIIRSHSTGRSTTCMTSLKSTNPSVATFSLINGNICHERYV

Work on commercially available BBN peptide yielded an IC50 of 24.4 nM.
